Measured values taken from US20220249633A1.

Target: HLA-A*24 (human)
Test: UV-exchange ELISA, exchange yield grade

| Binder | peptide exchange yield [%] |
| --- | --- |
| SYLTWHQQI [… (SEQ ID NO: 104)] | > 75 |
| GYIEHFSLW [… (SEQ ID NO: 120)] | > 75 |
| KYLEDMKTYF [… (SEQ ID NO: 133)] | 50 to 75 |
| RYLNKSFVL [… (SEQ ID NO: 115)] | 50 to 75 |
| QYILAVPVL [… (SEQ ID NO: 99)] | > 75 |
| IFGIFPNQF [… (SEQ ID NO: 139)] | 50 to 75 |
| VYRVYVTTF [… (SEQ ID NO: 119)] | 50 to 75 |
| NYIPVKNGKQF [… (SEQ ID NO: 103)] | 50 to 75 |
| EYLHNCSYF [… (SEQ ID NO: 137)] | > 75 |
| AYIPTPIYF [… (SEQ ID NO: 134)] | 50 to 75 |
| KFFDDLGDELLF [… (SEQ ID NO: 152)] | 20 to 49 |
| KYIFQLNEI [… (SEQ ID NO: 143)] | 50 to 75 |
| LYLAFPLAF [… (SEQ ID NO: 147)] | 50 to 75 |
| YYTQYSQTI [… (SEQ ID NO: 96)] | > 75 |
| IYKWITDNF [… (SEQ ID NO: 155)] | > 75 |
| KYFPYLVVI [… (SEQ ID NO: 107)] | 50 to 75 |
| EYQARIPEF [… (SEQ ID NO: 122)] | 50 to 75 |
| TYTFLKETF [… (SEQ ID NO: 97)] | > 75 |
| VYPFDWQYI [… (SEQ ID NO: 128)] | > 75 |
| NYYERIHAL [… (SEQ ID NO: 146)] | 50 to 75 |
| KYIDYLMTW [… (SEQ ID NO: 129)] | > 75 |
| RYPALFPVL [… (SEQ ID NO: 132)] | > 75 |
| IYNETVRDLL [… (SEQ ID NO: 106)] | 50 to 75 |
| KYLNSVQYI [… (SEQ ID NO: 118)] | 50 to 75 |
| VFPRLHNVLF [… (SEQ ID NO: 98)] | 50 to 75 |
| IYPEWPVVFF [… (SEQ ID NO: 136)] | 50 to 75 |
| AYVIAVHLF [… (SEQ ID NO: 116)] | > 75 |
| SYGTVSQI [SYGTVSQI (SEQ ID NO: 149)] | > 75 |

Results, then the binder that gave them:

| peptide exchange yield [%] | Binder |
| --- | --- |
| 20 to 49 | VYTPVLEHL [… (SEQ ID NO: 123)] |
| 50 to 75 | VFSRDFGLLVF [… (SEQ ID NO: 125)] |
| > 75 | LFITGGQFF [… (SEQ ID NO: 109)] |
| > 75 | QYLDGTWSL [… (SEQ ID NO: 114)] |
| > 75 | VYGVPTPHF [… (SEQ ID NO: 154)] |
| 50 to 75 | IYSFHTLSF [… (SEQ ID NO: 113)] |
| 50 to 75 | VYPFENFEF [… (SEQ ID NO: 102)] |
| 50 to 75 | VYVQILQKL [… (SEQ ID NO: 111)] |
| 50 to 75 | VYALKVRTI [… (SEQ ID NO: 145)] |
| 50 to 75 | IYLSDLTYI [… (SEQ ID NO: 117)] |
| 50 to 75 | IYNETITDLL [… (SEQ ID NO: 105)] |
| 20 to 49 | VYNAVSTSF [… (SEQ ID NO: 138)] |
| > 75 | VYEAMVPLF [… (SEQ ID NO: 135)] |
| > 75 | RYLINSYDF [… (SEQ ID NO: 140)] |
| 50 to 75 | SYNGHLTIWF [… (SEQ ID NO: 141)] |
| 50 to 75 | SYPKIIEEF [… (SEQ ID NO: 110)] |
| 50 to 75 | VYIESRIGTSTSF [… (SEQ ID NO: 100)] |
| 50 to 75 | QYFTGNPLF [… (SEQ ID NO: 127)] |
| 50 to 75 | RYGLPAAWSTF [… (SEQ ID NO: 121)] |
| 50 to 75 | IYNFVESKL [… (SEQ ID NO: 112)] |
| > 75 | VFASLPGFLF [… (SEQ ID NO: 144)] |
| < 20 | TYKDYVDLF [… (SEQ ID NO: 124)] |
| 50 to 75 | PYLVVIHTL [… (SEQ ID NO: 108)] |
| > 75 | VYVPFGGKSMITF [… (SEQ ID NO: 153)] |
| 50 to 75 | EYLDRIGQLFF [… (SEQ ID NO: 131)] |
| > 75 | SYGTVSQIF [… (SEQ ID NO: 148)] |
